Measured values from patent US5444153, “Variants of PAI-2” (Biotech Australia Pty Limited, dated 1995).
Where a chain is given by its changes, count along the chain named. Each block holds one binder with its values, some of them ahead of it.

Experiments:
Experiment in all cases: incubation of the purified proteins; SDS-PAGE and western blot with anti-PAI-2
[1] = target: two chain t-PA (American Diagnostica) (Homo sapiens (Human), UniProt P00750)
[2] = target: single chain t-PA (American Diagnostica) (Homo sapiens (Human), UniProt P00750)
u-PA (Behring) = u-PA (Behring) (Homo sapiens (Human), UniProt P00749)

binding result [1]: binds
binding result [2]: binds
binding result (u-PA (Behring)): binds
B1: PAI-2 deletion variant Δ74-96 (as expressed from pBTA829) (other)
chain: MEDLCVANTLFALNLFKHLAKASPTQNLFLSPWSISSTMAMVYMGSRGSTEDQMAKVLQFNEVGANAVTPMTPAQAADKIHSSFRSLSSAINASTGNYLLESVNKLFGEKSASFREEYIRLCQKYYSSEPQAVDFLECAEEARKKINSWVKTQTKGKIPNLLPEGSVDGDTRMVLVNAVYFKGKWKTPFEKKLNGLYPFRVNSAQRTPVQMMYLREKLNIGYIEDLKAQILELPYAGDVSMFLLLPDEIADVSTGLELLESEITYDKLNKWTSKDKMAEDEVEVYIPQFKLEEHYELRSILRSMGMEDAFNKGRANFSGMSERNDLFLSEVFHQAMVDVNEEGTEAAAGTGGVMTGRTGHGGPQFVADHPFLFLIMHKITNCILFFGRFSSP

binding result [1]: binds
binding result [2]: binds
B2: native PAI-2 (as expressed from pBTA641) (other)
chain: MEDLCVANTLFALNLFKHLAKASPTQNLFLSPWSISSTMAMVYMGSRGSTEDQMAKVLQFNEVGANAVTPMTPENFTSCGFMQQIQKGSYPDAILQAQAADKIHSSFRSLSSAINASTGNYLLESVNKLFGEKSASFREEYIRLCQKYYSSEPQAVDFLECAEEARKKINSWVKTQTKGKIPNLLPEGSVDGDTRMVLVNAVYFKGKWKTPFEKKLNGLYPFRVNSAQRTPVQMMYLREKLNIGYIEDLKAQILELPYAGDVSMFLLLPDEIADVSTGLELLESEITYDKLNKWTSKDKMAEDEVEVYIPQFKLEEHYELRSILRSMGMEDAFNKGRANFSGMSERNDLFLSEVFHQAMVDVNEEGTEAAAGTGGVMTGRTGHGGPQFVADHPFLFLIMHKITNCILFFGRFSSP

binding result [1]: binds
binding result [2]: binds
B3: second form of native PAI-2 (alternative native PAI-2, expressed from pBTA 683) (other)
chain: B2 chain with N120D, N404K, S413C
